Source: patent CN111138531A (INST MILITARY MEDICINE ACADEMY MILITARY SCIENCES PLA, dated 2020)

Target: GPdM (EBOV, UniProt Q05320 33-632)
Experiment: ELISA on coated truncated GP, method as example 2

B1: 单克隆抗体8F9 (antibody, V domains shown)
VH: EVQLLESGGGLVQPGGSLRLSCAASEFTFSNYAMNWVRQAPGKGLEWVSGISTRGSSTYYADSVKGRFTISRDNSKNTLYLQMNSLRVEDTAVYYCAKDRLSVFGVVLISSDYYGMDVWGQGTTVTVSS
VL: AIRMTQSPFSLSASVGDRVTITCRASRTISSYLNWYQKKPGKAPKLLIYAASSLQSGVPSRFSGSGSGTDFTLTISSLQPEDFATYYCQQSYSTPMTFGQGTRLEIKT
In the case of B1, the EC50 is reported as 6.2 ng/mL.
